Laboratory results published in article PMC3458536 (Nucleic Acids Research, 2012).

B1: GST-U2AF35 (natural protein)
chain: MAEYLASIFGTEKDKVNCSFYFKIGACRHGDRCSRLHNKPTFSQTIALLNIYRNPQNSSQSADGLRCAVSDVEMQEHYDEFFEEVFTEMEEKYGEVEEMNVCDNLGDHLVGNVYVKFRREEDAEKAVIDLNNRWFNGQPIHAELSPVTDFREACCRQYEMGECTRGGFCNFMHLKPISRELRRELYGRRRKKHRSRSRSRERRSRSRDRGRGGGGGGGGGGGGRERDRRRSRDRERSGRF
B2: His-C (C-terminal B/A repeat domain of YB-1, amino acids 128-324) (domain or fragment)
chain: PGGVPVQGSKYAADRNHYRRYPRRRGPPRNYQQNYQNSESGEKNEGSESAPEGQAQQRRPYRRRRFPPYYMRRPYGRRPQYSNPPVQGEVMEGADNQGAGEQGRPVRQNMYRGYRPRFRRGPPRQRQPREDGNEEDKENQGDETQGQQPPQRRYRRNFNYRRRRPENPKPQDGKETKAADPPAENSSAPEAEQGGAE

Key:
Assay in all cases: pull-down
[1] = target: His-YB-1 (recombinant His-tagged full-length YB-1) (human, UniProt P67809 1-324)
[2] = target: B1
[3] = target: GST-U2AF65 (UniProt P26368 1-475)
Chain of GST-U2AF65 (P26368 whole entry, one chain of several): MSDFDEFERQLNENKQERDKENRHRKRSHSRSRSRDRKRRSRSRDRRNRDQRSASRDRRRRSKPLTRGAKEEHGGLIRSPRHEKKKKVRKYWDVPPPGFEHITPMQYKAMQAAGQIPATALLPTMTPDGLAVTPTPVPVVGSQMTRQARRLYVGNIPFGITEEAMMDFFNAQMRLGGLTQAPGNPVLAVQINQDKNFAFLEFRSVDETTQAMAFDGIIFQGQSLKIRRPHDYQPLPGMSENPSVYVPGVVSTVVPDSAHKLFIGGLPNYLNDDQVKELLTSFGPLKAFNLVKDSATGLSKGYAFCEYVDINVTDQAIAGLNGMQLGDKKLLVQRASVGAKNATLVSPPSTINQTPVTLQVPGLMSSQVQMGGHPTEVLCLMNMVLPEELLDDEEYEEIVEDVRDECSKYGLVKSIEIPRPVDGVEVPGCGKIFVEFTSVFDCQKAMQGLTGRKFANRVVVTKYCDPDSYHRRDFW

Binder	binding result [1]	binding result [2]	binding result [3]
B1	binds	–	–
B2	–	binds	binds
